Measurements published in JP2024051908A (dated 2024).

Experiments:
Assay in all cases: cell-based or functional assay
[1] = target: SARS-CoV-2 D614G変異株のスパイクタンパク質 (authentic virus) (SARS-CoV-2 D614G, UniProt P0DTC2 14-1273)
[2] = target: SARS-CoV-2 Delta変異株のスパイクタンパク質 (authentic virus) (SARS-CoV-2 Delta)
[3] = target: SARS-CoV-2 オミクロンBA.1変異株のスパイクタンパク質 (authentic virus) (SARS-CoV-2 Omicron BA.1)
[4] = target: SARS-CoV-2 オミクロンBA.1.1変異株のスパイクタンパク質 (authentic virus) (SARS-CoV-2 Omicron BA.1.1)
[5] = target: SARS-CoV-2 オミクロンBA.2変異株のスパイクタンパク質 (authentic virus) (SARS-CoV-2 Omicron BA.2)
[6] = target: SARS-CoV-2 オミクロンBA.5変異株のスパイクタンパク質 (authentic virus) (SARS-CoV-2 Omicron BA.5)

B1: MO2 (antibody, V domains shown)
VH: EVQLVESGGGLVKPGGSLSLSCVASGFTFSDYRMSWIRQAPGKGLEWVSYISSSSGYKDYADSVKGRFTISRDNAKNSLSLQMNSLRVEDTAVYYCARDVGVVTATPGYWGQGVPVSVSS
VL: DIVMTQSPATLSVSPGERATLSCRASQSVGSNLAWYQQKPGQAPRLLIYDTSTRATGVPARFSGSGSGTDFTLTISSLQSEDFAVYLCHQYDQWPPAFGPGTRVDIK
IC50, プラーク減少中和試験 (PRNT) [1]: 0.0658 µg/mL | IC50, プラーク減少中和試験 (PRNT) [2]: 0.0882 µg/mL | IC50, プラーク減少中和試験 (PRNT) [3]: 0.0177 µg/mL | IC50, プラーク減少中和試験 (PRNT) [4]: 0.036 µg/mL | IC50, プラーク減少中和試験 (PRNT) [5]: 0.151 µg/mL

B2: MO1 (antibody, V domains shown)
VH: EVQLVESGGGMVQPGRSLRLSCAASGFTFDDYAMHWVRQIPGKGLEWVSGISWNSGDIGYADSVKGRFTISRDNAKNSLHLQMNSLRAEDTALYYCAKDKTYDSPGYFLNSFDYWGQGTLVTVSS
VL: DIQMTQSPSSLSASVGDRVTITCRASQGISSYLVWYQQKPGKAPKFLIYAASTLQSGVPSRFSGSGSGTDFTLTISSLQPEDFATYYCQQLYSYPITFGQGTRLEIK
IC50, プラーク減少中和試験 (PRNT) [1]: 0.0236 µg/mL | IC50, プラーク減少中和試験 (PRNT) [2]: 0.0158 µg/mL | IC50, プラーク減少中和試験 (PRNT) [3]: 0.004 µg/mL | IC50, プラーク減少中和試験 (PRNT) [4]: 0.0106 µg/mL | IC50, プラーク減少中和試験 (PRNT) [5]: 0.0203 µg/mL | IC50, プラーク減少中和試験 (PRNT) [6]: 0.0157 µg/mL
